Measured values taken from article PMC6882875.

Legend:
Assay in all cases: EMSA
Conditions in all cases: EMSA: binding buffer stock 80 mM Tris-HCl pH 8.0, 20 mM MgCl2, 2 mM DTT, 4 mM EDTA, 400 mM KCl, 40% glycerol (final dilution not stated); poly(dI-dC) …
[1] = tested on: MalR1 (Bifidobacterium breve UCC2003)
[2] = tested on: AraQ (Bifidobacterium breve UCC2003)
[3] = tested on: T1, AraQ (Bifidobacterium breve UCC2003), ORF:c628000b
T1 sequence: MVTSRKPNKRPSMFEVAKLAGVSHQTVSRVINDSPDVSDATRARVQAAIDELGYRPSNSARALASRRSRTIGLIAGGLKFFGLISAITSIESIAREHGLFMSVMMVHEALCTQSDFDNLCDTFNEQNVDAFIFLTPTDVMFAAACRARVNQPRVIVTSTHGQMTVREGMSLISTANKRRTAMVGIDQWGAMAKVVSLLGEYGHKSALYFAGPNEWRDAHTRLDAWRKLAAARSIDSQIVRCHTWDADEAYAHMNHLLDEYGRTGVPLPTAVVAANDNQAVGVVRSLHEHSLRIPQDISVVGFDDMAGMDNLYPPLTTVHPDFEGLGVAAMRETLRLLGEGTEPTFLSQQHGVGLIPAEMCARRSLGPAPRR

[4] = tested on: T2, MalR1 (Bifidobacterium breve UCC2003), ORF:82221dfa
T2 sequence: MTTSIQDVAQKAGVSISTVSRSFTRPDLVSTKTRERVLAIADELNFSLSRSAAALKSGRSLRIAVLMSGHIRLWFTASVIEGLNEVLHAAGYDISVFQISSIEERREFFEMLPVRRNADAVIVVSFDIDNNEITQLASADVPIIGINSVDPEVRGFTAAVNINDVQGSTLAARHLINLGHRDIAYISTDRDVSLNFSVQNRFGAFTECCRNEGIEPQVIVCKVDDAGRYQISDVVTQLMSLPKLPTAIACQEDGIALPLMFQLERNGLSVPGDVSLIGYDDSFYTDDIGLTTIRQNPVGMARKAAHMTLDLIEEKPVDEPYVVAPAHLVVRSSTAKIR

Substance | binding signal [1] | binding signal [2] | binding signal [3] | binding signal [4]
Bbr_1420 promoter | < 15 % bound | 0 % bound | – | –
Bbr_1658 promoter | 0 % bound | 0 % bound | – | –
Bbr_1659 promoter | 0 % bound | 0 % bound | – | –
Bbr_1841 promoter | 0 % bound | < 15 % bound | – | –
Bbr_1894 (PTS) promoter | < 15 % bound | – | – | –
CATACGCCTCTCGCTTTCGTCATTGGGCCGACGTCACTGCCGGCACAAAACCGCGACACATGTATGCGTCTTGGTCAACGCTGAATCGTCTCATCACTGAAATGATTTAACGTTTAATCACTTGCGTGATTCATAATATATCGTTTAATCACAGGGGTCAATCAGCGTGTCGAGAGCGTTAACAATCGCGTCCTAACGCCATTACCAGCACATCAGAAACACAATATGGCACAAAAAAAGACAAAATATTGGCGGCGAAGGACTATTGAGC (double strand) [rbsA1 promoter] | – | – | 0 % bound | binds
CGAATGCCATATCCGTCTCCTCCTTGCGGCTTACTGCAGCGTTAGAAATGCACAATTCAAATGTACCCTTCTTATAACCGACGCCCGCAAGGTCGTGTCATGCGTCAAACTCTTTTACTGCAGACATTTTTGAGGCTTCTGCTGTTTTCGTGGGCTAGCTGACTGGTTCCGGTAGTCGGATGTCGAGTCCGCCGCATCTGAGCATGATC (double strand) [Bbr_1420 promoter] | – | – | 0 % bound | < 15 % bound
CGACAGCTTCCTTGCCATGCTGGCCCTCCTTTATTTTCCAACCCTCGGTTTTCCGCATTGTGCAATCTGCATTGTTTGCCTTGCGGAATCTTAGGAAATTATTTTCCTAAAATGTTTTCTTGAGATAAGATTATAGGACGCCAACGTCAGTGTCAACACGGCGGGTCGAGGGTCGCACAACCCGGACCGAACGGCCCACAATGGCGACGTAGCAAGGAACAGAACGCTACGCCCTTGTACACTGATACAGAGGAAAACAGGCAGGAGGGGAGACATGAACATCAGGGACATCGCACGC (double strand) [Bbr_1841 promoter] | – | – | < 15 % bound | 0 % bound
CTTCGCCACGTCATACACCGTTGCCCTACGCATGATTCCTACTTTAATCGATTCCGGAGGTCAGCACACGTTCGACCTGAATCTAAAAAAAGTTTTAGTGGCTTTCCTGTCAATCTCGCATGCATACTTCAGGTTACGGGCGCAGCACCCAATAATGGGTACCGCGCCTTAATGACCGCTACACGAGCAGTCTCAGCAACTGGTAAAGCTGCCATAGGCTGCGCACGTTG (double strand) [Bbr_1659 promoter] | – | – | 0 % bound | 0 % bound
GATGAGTGCGCGTGAGAAGAAGAAGGCTGCCGTAGAAGCGAAATAATCGGTGCATGGCCGCTCTGCAGATATATGGAGGGCGGTCTGCGAACCGCCGGGAATGGGTTGCCAATCCCGGCGGTTTGTGTATCCGTGGCGCAGTACAGTCGTAAAGGAAGGCAAGGAGGACAACCATGGCGGAAGGTGTACCGAAGTATATTGCGGTTAGGGACAATCTTCGCCAGCGTG (double strand) [gntR promoter] | – | – | 0 % bound | 0 % bound
GCGTTCTATCCTTGCACTGAGCCACGAAAGACGGCATTGTGCAAACGATGGCATACTGTGGGATGCGGAATGACAAGACATGTGATACTCTCTGACTGAGAACGTATGCAACAACTGTCTGCCAACGCTGTTACAGAGAGTTCATGCACACGTTTATGCGACGATACCAATCGCGCGGCATAATAAGCACGGGCACTTATCCCGGAAGGAAAGTCAGAATG (double strand) [glgP1 promoter] | – | – | binds | 0 % bound
GCTCGCTTTTGCCATGGCAACCTCGCTCATCAACAGTGGATAACAATCCCGCTCAAAAGACAACGTTATCATACCTAAGCGAGCAACATGCACGCCACGCTGTCTATTTAGAAGTGCAACGCCCCTGTTCGTCGGCTAATTCTTGCAGTTCGTCGGTGAATGCCCCGGGCCCCCGGATTCAACTTGTAAGTGCAACGGCTGGTTTCGG (double strand) [malR2 promoter] | – | – | binds | 0 % bound
GGTCAAGCTCATCGTGCGGGGCAGCTGTGGGTGCTGATTATTTCTTGAAGAAGGCTAAATAAGGCTTTTGAGACCTCCTGCAGGGGAGTCACTGTTGATGCTGTTTCGTCGTGTCGAATCGGTTCGCGAGTTGACAAACAAAAAACTATGCGCTTAAATATTAATCACAATCTACGCGGTTAGATTGTTGAGAAGTAACAGTTCAAGGAGGAACGAGGAATGAAGCGAAGCATGTTCAAGATGGCGACTGCCATCATCGCCAGTGCGGCTATGCTGACCAG (double strand) [Bbr_1658 promoter] | – | – | 0 % bound | 0 % bound
GGTTGTCGTAATCCTCGGTGGAAGGACCGATGGTGTCTACGATCTTGGCTTTACGCATGAATGCCTGCCTATTCTTGTTCTTTTTTGGTTCGAGGCGCGATTGCCTCACTTGCCGCAGCCCAGTCTACTAGCGCAGACCGGCTCATGACAAGTTTATTCCCCGGTGTGTTGTGAGCGCTCACACTGTTGCGCCGATTGGGTTTTGAGGGGTTGATTTCCCTATGATTTCAGGCCTTCTCAGCG (double strand) [pyk promoter] | – | – | binds | binds
agl3 promoter | 0 % bound | 0 % bound | – | –
cldE promoter | – | 0 % bound | – | –
cldR promoter | 0 % bound | 0 % bound | – | –
glgP1 promoter | 0 % bound | – | – | –
glgP2 promoter | 0 % bound | 0 % bound | – | –
gntR promoter | 0 % bound | 0 % bound | – | –
malE promoter | 0 % bound | – | – | –
malG2 (F2) promoter | 0 % bound | – | – | –
malQ promoter | 0 % bound | < 15 % bound | – | –
malR2 promoter | 0 % bound | – | – | –
malR3/apuB intergenic region | < 15 % bound | < 15 % bound | – | –
malR5/malE2 intergenic region | < 15 % bound | < 15 % bound | – | –
nrdH promoter | 0 % bound | – | – | –
rbsA1 promoter | – | 0 % bound | – | –
